Laboratory results published in the supplement of paper PMC10567573.

B1: DYRK1B (parent)
chain: RFQDLVLRMLEYEPAARISPLGAL

Variants of: B1
Assay: protein stability index of a GFP-peptide fusion (GPS, HEK-293T) (PSI 1-6); higher = more stable
Details: c terminus: a fixed tail appended
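Also: lentivirally expressed fusions sorted by FACS into six bins by GFP to DsRed ratio, PSI derived from sequencing read proportions per bin multiplied by bin number.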

Q: Which protein stability index does the source give for RFQDLVYRMLEYEPAARISPLGAL here?
A: 1.38

Q: Which protein stability index does the source give for RFQDLVKRMLEYEPAARISPLGAL here?
A: 1.51

Q: Which protein stability index does the source give for RFQDLVFRMLEYEPAARISPLGAL here?
A: 2.9

Q: Which protein stability index does the source give for RFQDLVRRMLEYEPAARISPLGAL here?
A: 1.58

Q: For RFQDLVQRMLEYEPAARISPLGAL, which protein stability index is on record?
A: 1.69

Q: For RFQDLVGRMLEYEPAARISPLGAL, which protein stability index is on record?
A: 1.18

Q: For RFQDLVERMLEYEPAARISPLGAL, which protein stability index is on record?
A: 1.8

Q: With RFQDLVNRMLEYEPAARISPLGAL as the variant, how does the protein stability index read?
A: 1.41

Q: For RFQDLVLCMLEYEPAARISPLGAL, which protein stability index is on record?
A: 2.22

Q: Which protein stability index does the source give for RFQDLVLIMLEYEPAARISPLGAL here?
A: 2.21

Q: Which protein stability index does the source give for RFQDLVLPMLEYEPAARISPLGAL here?
A: 2.23

Q: Which protein stability index does the source give for RFQDLVLEMLEYEPAARISPLGAL here?
A: 2.06

Q: For RFQDLVLGMLEYEPAARISPLGAL, which protein stability index is on record?
A: 1.33

Q: With RFQDLVLHMLEYEPAARISPLGAL as the variant, how does the protein stability index read?
A: 1.85

Q: Which protein stability index does the source give for RFQDLVLMMLEYEPAARISPLGAL here?
A: 3.14

Q: For RFQDLVLAMLEYEPAARISPLGAL, which protein stability index is on record?
A: 4.01

Q: Which protein stability index does the source give for RFQDLVLDMLEYEPAARISPLGAL here?
A: 1.31

Q: Which protein stability index does the source give for RFQDLVLLMLEYEPAARISPLGAL here?
A: 1.89

Q: For RFQDLVLRMLEYQPAARISPLGAL, which protein stability index is on record?
A: 3.79

Q: Which protein stability index does the source give for RFQDLVLRMLEYDPAARISPLGAL here?
A: 3.04

Q: With RFQDLVLRMLEYWPAARISPLGAL as the variant, how does the protein stability index read?
A: 3.37

Q: Which protein stability index does the source give for RFQDLVLRMLEYRPAARISPLGAL here?
A: 1.34

Q: Which protein stability index does the source give for RFQDLVLRMLEYHPAARISPLGAL here?
A: 1.76

Q: Which protein stability index does the source give for RFQDLVLRMLEYPPAARISPLGAL here?
A: 3.05

Q: For RFQDLVLRMLEYTPAARISPLGAL, which protein stability index is on record?
A: 4.09

Q: For RFQDLVLRMLEYGPAARISPLGAL, which protein stability index is on record?
A: 1.82

Q: Which protein stability index does the source give for RFQDLVLRMLEYYPAARISPLGAL here?
A: 3.29

Q: With RFQDLVLRMLEYSPAARISPLGAL as the variant, how does the protein stability index read?
A: 2.48

Q: With RFQDLVLRMLEYFPAARISPLGAL as the variant, how does the protein stability index read?
A: 2.32

Q: For RFQDLVLRMLEYAPAARISPLGAL, which protein stability index is on record?
A: 2.87

Q: With RFQDLVLRMLEYNPAARISPLGAL as the variant, how does the protein stability index read?
A: 2.11

Q: Which protein stability index does the source give for RFQDLVLRMLEYLPAARISPLGAL here?
A: 2.27

Q: Which protein stability index does the source give for RWQDLVLRMLEYEPAARISPLGAL here?
A: 1.39

Q: For RTQDLVLRMLEYEPAARISPLGAL, which protein stability index is on record?
A: 2.42

Q: For RYQDLVLRMLEYEPAARISPLGAL, which protein stability index is on record?
A: 3.05

Q: With RVQDLVLRMLEYEPAARISPLGAL as the variant, how does the protein stability index read?
A: 3.5

Q: With RRQDLVLRMLEYEPAARISPLGAL as the variant, how does the protein stability index read?
A: 2.38

Q: For RFQDLVLRMLEYEPFARISPLGAL, which protein stability index is on record?
A: 1.95

Q: Which protein stability index does the source give for RFQDLVLRMLEYEPPARISPLGAL here?
A: 2.8

Q: Which protein stability index does the source give for RFQDLVLRMLEYEPMARISPLGAL here?
A: 2.57

Q: Which protein stability index does the source give for RFQDLVLRMLEYEPQARISPLGAL here?
A: 2.04

Q: Which protein stability index does the source give for RFQDLVLRMLEYEPYARISPLGAL here?
A: 2.03

Q: Which protein stability index does the source give for RFQDLVLRMLEYEPWARISPLGAL here?
A: 5.07

Q: For RFQDLVLRMLEYEPRARISPLGAL, which protein stability index is on record?
A: 3.6

Q: Which protein stability index does the source give for RFQDLVLRMLEYEPHARISPLGAL here?
A: 5.14

Q: For RFQDLVLRMLEYEPKARISPLGAL, which protein stability index is on record?
A: 3.43

Q: For RFQILVLRMLEYEPAARISPLGAL, which protein stability index is on record?
A: 1.1

Q: With RFQKLVLRMLEYEPAARISPLGAL as the variant, how does the protein stability index read?
A: 2.07

Q: With RFQRLVLRMLEYEPAARISPLGAL as the variant, how does the protein stability index read?
A: 2.31

Q: With RFQNLVLRMLEYEPAARISPLGAL as the variant, how does the protein stability index read?
A: 1.91

Q: For RFQHLVLRMLEYEPAARISPLGAL, which protein stability index is on record?
A: 2.78

Q: With RFQSLVLRMLEYEPAARISPLGAL as the variant, how does the protein stability index read?
A: 2.88

Q: Which protein stability index does the source give for RFQVLVLRMLEYEPAARISPLGAL here?
A: 3.69

Q: With RFQDLVLRMLEYEEAARISPLGAL as the variant, how does the protein stability index read?
A: 2.21

Q: For RFQDLVLRMLEYENAARISPLGAL, which protein stability index is on record?
A: 1.45

Q: With RFQDLVLRMLEYEIAARISPLGAL as the variant, how does the protein stability index read?
A: 1.72

Q: For RFQDLVLRMLEYEFAARISPLGAL, which protein stability index is on record?
A: 2.87

Q: Which protein stability index does the source give for RFQDLVLRMLEYELAARISPLGAL here?
A: 5.01

Q: With RFQDLVLRMLEYEPAPRISPLGAL as the variant, how does the protein stability index read?
A: 1.44

Q: Which protein stability index does the source give for RFQDLVLRMLEYEPACRISPLGAL here?
A: 3.04

Q: Which protein stability index does the source give for RFQDLVLRMLEYEPAERISPLGAL here?
A: 1.36

Q: For RFQDLVLRMLEYEPAKRISPLGAL, which protein stability index is on record?
A: 2.35

Q: For RFQDLVLRMLEYEPAFRISPLGAL, which protein stability index is on record?
A: 1.02

Q: Which protein stability index does the source give for RFQDLVLRMLEYEPAMRISPLGAL here?
A: 1.85

Q: Which protein stability index does the source give for RFQDLVLRMLEYEPATRISPLGAL here?
A: 2.28

Q: For RFQDLVLRMLEYEPANRISPLGAL, which protein stability index is on record?
A: 3.65

Q: With RFQDLVLRMLETEPAARISPLGAL as the variant, how does the protein stability index read?
A: 1.04

Q: Which protein stability index does the source give for RFQDLVLRMLEGEPAARISPLGAL here?
A: 1.6

Q: With RFQDLVLRMLEDEPAARISPLGAL as the variant, how does the protein stability index read?
A: 1.99

Q: For RFQDLVLRMLEWEPAARISPLGAL, which protein stability index is on record?
A: 2.82

Q: With RFQDLVLRMLENEPAARISPLGAL as the variant, how does the protein stability index read?
A: 1.65

Q: For RFQDLVLRMLEPEPAARISPLGAL, which protein stability index is on record?
A: 2

Q: Which protein stability index does the source give for RFQDLVLRMLEQEPAARISPLGAL here?
A: 1.44

Q: Which protein stability index does the source give for RFQDLVLRMLEVEPAARISPLGAL here?
A: 3.06

Q: With RFQDLVLRMLEEEPAARISPLGAL as the variant, how does the protein stability index read?
A: 1.05

Q: With RFQDLVLRMLESEPAARISPLGAL as the variant, how does the protein stability index read?
A: 2.61

Q: For RFQDLVLRMLEMEPAARISPLGAL, which protein stability index is on record?
A: 2.22

Q: For RFQDHVLRMLEYEPAARISPLGAL, which protein stability index is on record?
A: 1.36

Q: With RFQDWVLRMLEYEPAARISPLGAL as the variant, how does the protein stability index read?
A: 2

Q: Which protein stability index does the source give for RFQDFVLRMLEYEPAARISPLGAL here?
A: 2.62

Q: With RFQDMVLRMLEYEPAARISPLGAL as the variant, how does the protein stability index read?
A: 3.17

Q: With RFQDRVLRMLEYEPAARISPLGAL as the variant, how does the protein stability index read?
A: 1.2

Q: For RFQDCVLRMLEYEPAARISPLGAL, which protein stability index is on record?
A: 3.97

Q: With RFQDDVLRMLEYEPAARISPLGAL as the variant, how does the protein stability index read?
A: 2.71

Q: With RFQDNVLRMLEYEPAARISPLGAL as the variant, how does the protein stability index read?
A: 2.28

Q: For RFQDAVLRMLEYEPAARISPLGAL, which protein stability index is on record?
A: 2.01

Q: For RFQDPVLRMLEYEPAARISPLGAL, which protein stability index is on record?
A: 2.16

Q: With RFQDYVLRMLEYEPAARISPLGAL as the variant, how does the protein stability index read?
A: 2.06

Q: Which protein stability index does the source give for RFQDTVLRMLEYEPAARISPLGAL here?
A: 1.49

Q: With RFQDVVLRMLEYEPAARISPLGAL as the variant, how does the protein stability index read?
A: 2.42

Q: With RFQDEVLRMLEYEPAARISPLGAL as the variant, how does the protein stability index read?
A: 1.02

Q: Which protein stability index does the source give for RFQDGVLRMLEYEPAARISPLGAL here?
A: 1.4

Q: With RFQDQVLRMLEYEPAARISPLGAL as the variant, how does the protein stability index read?
A: 1.1

Q: For RFQDKVLRMLEYEPAARISPLGAL, which protein stability index is on record?
A: 1.91
